Experimental findings from US9283300B2, “Use of midkine protein and the protein-containing medical device” (GENERAL REGENERATIVES, LTD, priority 2009, dated 2016) are described below.

Assay [1] deals with cartilage of normal mouse (knee-joint articular, ear elastic, tracheal, intervertebral disc). Kind of assay: rhMK effect on cartilage thickness of normal mice (subcutaneous injection, histology). Format: in vivo, C57BL/6J mice. To be noted: for Thickness of cartilage, Ear elastic cartilage / Thickness of cartilage, Femoral condyle / Thickness of cartilage, Intervertbral disc (T2-3): normal mouse, mean ± SD. As to the method:
Method. 8-weeks-old male C57BL/6J mice were injected subcutaneously with recombinant human MK (rhMK) or control saline. The injection volume was 0.5 ml, given daily for a week. The mice were grouped (3 animals per group): Saline (NS) group, rhMK groups injected with various dosages at 10, 33, 100, 300, 900 μg/kg. Rats were injected with saline or rhMK (175 μg/kg) daily for a week. Rabbits were injected with saline or rhMK (92.5 μg/kg) daily for two week. Histological observation and evaluation. The knee joint tissues of all mice and rats were fixed in 10% (v/v) formalin for 1 day, the tissues of rabbits were fixed for 2 days. The fixed tissues were subjected to demineralization in liquid (7% AlCl3.6H2O, 5% methanoic acid, 8.5% HCl) 4 days for mouse and rats issues, and 10 days for rabbit tissues. The demineralized tissues were subjected to dehydration by gradient ethanol, and treated for transparency by xylene, and embedded in wax. Tissue sections were prepared by the paraffin slicing machine (Laica), and stained with hemotoxylin/eosin or Safranine O/fast green staining. Slides were observed under microscope and analyzed. The thickness of cartilage tissues were measured by the vernier caliper on microscope. Three tissue sections from each sample were measured and analyzed statisticaly. The distance between surface of cartilage to subchondral tide line was measured at ½ position of femoral condyle to denote the thickness of knee-joint cartilage. The thickness of cartilage at central part of ears was measured to denote the thickness of ear elastic cartilage. The distance between out surface of annulus to nucleus of the intervertebral disc was measured to denote the thickness of thoracic intervertebral disc (T2-3). The injection dose of rhMK: mice was injected subcutaneously 300 μg/kg daily for a week; rats were injected 175 μg/kg daily for a week; and New Zealand rabbits was injected 92.5 μg/kg daily for two weeks. Three animals per group were analyzed.

The subject of assay [2] is rat fibrochondrocyte and articular chondrocyte. The assay is described as follows: Phenotype of chondrocytes in monolayer culture (semi-quantitative PCR, collagen II immunohistochemical staining). In kind it is cell-based. The conditions noted are these: passages P0-P2, Col2a1/collagen II. As to the method: 3. Culture of primary chondrocytes in monolayer. Three types of primary chondrocytes were suspended in DMEM medium containing 10% FBS, adjusted to 5×10^4 cells/ml, added to 6-well plate with 2 ml medium/well, and incubated in 37° C. at 5% CO2. Experiment was divided into two groups: control group and experimental group (with 3 μg/ml rhMK). Cell medium was changed every two days. When the cells grew to the confluence of 85% to 90%, the cells were collected by trypsin digestion, washed in PBS by centrifugation. The cells were resuspended in DMEM containing 10% FBS. Cell survival was monitored by trypan blue staining. Part of the cells were used for cell passage; some were for RNA extraction; some were cytospined onto a glass slide for later immunohistochemical staining and the slides were stored at −80° C. Primary cells or passage 0 (P0) were cultured for 7 days. The newly passaged cells were further cultured in a 6-well plate for 3 days which was then collected by trypsin-digestion and marked as passage P1. The cell amplification at each passage=total number of cells at output/total number of cells at initial input. 6. Immunohistochemical staining. […] RNA extraction and semi-quantitative PCR. […] PCR products were separated on 1.5% (w/v) agarose gels and quantified after staining with ethidium bromide in comparison with internal control gene expression of β-actin.

[3] abbreviates: Mouse, rhMK 300 μg/kg s.c. daily for a week.
[4] abbreviates: rhMK 10 μg/kg s.c. daily for one week.
The mark [5] stands for this setting: rhMK 33 μg/kg s.c. daily for one week.
Where [6] appears, read: rhMK 100 μg/kg s.c. daily for one week.
[7] abbreviates: rhMK 300 μg/kg s.c. daily for one week.
Setting [8] is: rhMK 900 μg/kg s.c. daily for one week.

B1: rhMK: recombinant human midkine mature protein (SEQ ID NO.1) expressed in E. coli and purified by ion-exchange chromatography (protein, listed as Homo sapiens)
chain: MKKKDKVKKGGPGSECAEWAWGPCTPSSKDCGVGFREGTCGAQTQRIRCRVPCNWKKEFGADCKYKFENWGACDGGTGTKVRQGTLKKARYNAQCQETIRVTKPCTPKTKAKAKAKKGKGKD
In assay [1] (setting [3]), B1 gave a Cartilage thickness, Ear of 58.5 ± 19.6 µm; a Cartilage thickness, Femoral condyle of 195 ± 9.9 µm; a Cartilage thickness, Intervertbral disc (T2-3) of 201 ± 17.2 µm; a Cartilage thickness, Trachea of 114 ± 18 µm. Besides, in assay [1] (mice, s.c. daily for a week), the “effective dose that promoted the growth of all three categories of cartilages” value came out at 300 µg/kg/day; the “minimum effective dose, articular cartilage and ear elastic cartilage” value is 10 µg/kg/day. Further, in assay [1] (setting [4]), the “Thickness of cartilage, Ear elastic cartilage” value stood at 47.6 ± 4.7 μm; the “Thickness of cartilage, Femoral condyle” value came to 152 ± 2.7 μm; the “Thickness of cartilage, Intervertbral disc (T2-3)” value (from here on “Thickness of cartilage … (T2-3)”) was determined as 193.8 ± 25.2 μm. Besides, in assay [1] (setting [5]), the “Thickness of cartilage, Ear elastic cartilage” value worked out at 46.2 ± 5.6 μm; the “Thickness of cartilage, Femoral condyle” value is reported as 156.4 ± 8.1 μm; the “Thickness of cartilage … (T2-3)” value is 206.2 ± 29.4 μm. In assay [1] (setting [6]), the “Thickness of cartilage, Ear elastic cartilage” value was 48.9 ± 5.5 μm; the “Thickness of cartilage, Femoral condyle” value came out at 172.4 ± 11.1 μm; the “Thickness of cartilage … (T2-3)” value turned out to be 193.8 ± 3.1 μm. For the same molecule, in assay [1] (setting [7]), the “Thickness of cartilage, Ear elastic cartilage” value is listed as 58.5 ± 19.6 μm; the “Thickness of cartilage, Femoral condyle” value is 195.3 ± 9.9 μm; the “Thickness of cartilage … (T2-3)” value was 200.7 ± 17.2 μm. Moreover, in assay [1] (setting [8]), the “Thickness of cartilage, Ear elastic cartilage” value is on record as 51.6 ± 5.6 μm; the “Thickness of cartilage, Femoral condyle” value is listed as 200.0 ± 7.0 μm; the “Thickness of cartilage … (T2-3)” value amounted to 217.1 ± 6.0 μm. Moreover, the “effect on the phenotype of fibrochondrocyte and articular chondrocyte” value in assay [2] is “no significant effect”.
